According to paper PMC5356539, “Neuropilin-1 is a receptor for extracellular miRNA and AGO2/miRNA complexes and mediates the internalization of miRNAs that modulate cell function” (Oncotarget, 2016):

Target: T1, Human recombinant AGO2, full-length protein (human, UniProt Q9UKV8 1-859)
T1 construct: human AGO2 (argonaute 2), full-length recombinant protein; also called full-length AGO2; source: bought: Biorbyt
Experiment: ELISA; plate coated with NRP1-Fc; full-length AGO2 pre-mixed or not with an equimolar amount of miR-20a (1 h, 37°C, Ca/Mg-HBSS) and serially diluted; bound AGO2 detected with anti-pan AGO2 antibody, anti-mouse IgG-HRP and TMB (OD450 minus non-specific binding)
Conditions: both partners purified

T1 sequence (Q9UKV8 whole entry): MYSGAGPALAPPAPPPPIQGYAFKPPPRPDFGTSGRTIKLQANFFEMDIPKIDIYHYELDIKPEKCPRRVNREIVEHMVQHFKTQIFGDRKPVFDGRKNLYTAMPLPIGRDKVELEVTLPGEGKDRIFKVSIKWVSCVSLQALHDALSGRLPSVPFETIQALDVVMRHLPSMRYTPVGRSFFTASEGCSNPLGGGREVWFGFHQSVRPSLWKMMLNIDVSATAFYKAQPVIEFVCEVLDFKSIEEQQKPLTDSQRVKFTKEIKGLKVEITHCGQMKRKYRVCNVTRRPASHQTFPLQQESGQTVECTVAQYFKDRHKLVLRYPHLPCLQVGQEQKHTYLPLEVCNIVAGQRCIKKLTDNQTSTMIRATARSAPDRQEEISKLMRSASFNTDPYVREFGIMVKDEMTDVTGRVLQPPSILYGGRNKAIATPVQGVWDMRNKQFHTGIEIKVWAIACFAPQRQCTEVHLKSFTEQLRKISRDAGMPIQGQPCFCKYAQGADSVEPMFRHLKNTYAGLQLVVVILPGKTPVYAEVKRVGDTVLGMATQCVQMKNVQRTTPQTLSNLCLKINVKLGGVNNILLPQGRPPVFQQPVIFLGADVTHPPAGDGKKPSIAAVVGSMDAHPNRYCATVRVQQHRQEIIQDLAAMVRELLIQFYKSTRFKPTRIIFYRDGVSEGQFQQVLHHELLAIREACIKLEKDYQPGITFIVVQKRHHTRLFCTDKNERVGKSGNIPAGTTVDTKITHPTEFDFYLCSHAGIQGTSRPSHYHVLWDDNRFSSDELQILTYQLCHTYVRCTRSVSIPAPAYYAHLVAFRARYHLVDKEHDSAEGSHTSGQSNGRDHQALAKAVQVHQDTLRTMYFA

- binding result: binds
B1: Recombinant full-length rat neuropilin-1/Fc chimera (Fc fusion, UniProt Q9QWJ9 22-855, looked up)
chain: FRSDKCGGTIKIENPGYLTSPGYPHSYHPSEKCEWLIQAPEPYQRIMINFNPHFDLEDRDCKYDYVEVIDGENEGGRLWGKFCGKIAPSPVVSSGPFLFIKFVSDYETHGAGFSIRYEIFKRGPECSQNYTAPTGVIKSPGFPEKYPNSLECTYIIFAPKMSEIILEFESFDLEQDSNPPGGVFCRYDRLEIWDGFPEVGPHIGRYCGQKTPGRIRSSSGILSMVFYTDSAIAKEGFSANYSVLQSSISEDFKCMEALGMESGEIHSDQITASSQYGTNWSVERSRLNYPENGWTPGEDSYREWIQVDLGLLRFVTAVGTQGAISKETKKKYYVKTYRVDISSNGEDWITLKEGNKAIIFQGNTNPTDVVFGVFPKPLITRFVRIKPASWETGISMRFEVYGCKITDYPCSGMLGMVSGLISDSQITASNQGDRNWMPENIRLVTSRTGWALPPSPHPYINEWLQVDLGDEKIVRGVIIQGGKHRENKVFMRKFKIAYSNNGSDWKMIMDDSKRKAKSFEGNNNYDTPELRAFTPLSTRFIRIYPERATHSGLGLRMELLGCEVEVPTAGPTTPNGNPVDECDDDQANCHSGTGDDFQLTGGTTVLATEKPTIIDSTIQSEFPTYGFNCEFGWGSHKTFCHWEHDSHAQLRWRVLTSKTGPIQDHTGDGNFIYSQADENQKGKVARLVSPVVYSQSSAHCMTFWYHMSGSHVGTLRVKLHYQKPEEYDQLVWMVVGHQGDHWKEGRVLLHKSLKLYQVIFEGEIGKGNLGGIAVDDISINNHIPQEDCAKPTDLDKKNTEIKIDETGSTPGYEEGKGDKNISRKPGNVLKTLDP
notes: rat neuropilin-1, unmodified extracellular domain; transmembrane and cytosolic domains replaced with a C-terminal portion of human IgG-Fc; also called NRP1-Fc; NRP1; source: bought: R&D Systems; not shown: Fc (human IgG), C-terminal, kept
